Test [1] concerns the target T1, Human PCSK9-myc-myc-his (human, UniProt Q8NBP7 31-692).
T1 construct: also called hPCSK9-mmh; hPCSK9
As to the kind of experiment: SPR, antigen captured at low density, pH 7.4, 25C. In general terms: In SPR one partner is held on a chip, and binding of the other changes the refractive index at the surface.

In test [2] the target is T2, tagged rhesus monkey (Macaca mulata) PCSK9 (rhesus monkey (Macaca mulata), UniProt A8T666 31-692).
T2 construct: also called mmPCSK9-mmh; mmPCSK9
T2 sequence (A8T666 31-692 limits assumed): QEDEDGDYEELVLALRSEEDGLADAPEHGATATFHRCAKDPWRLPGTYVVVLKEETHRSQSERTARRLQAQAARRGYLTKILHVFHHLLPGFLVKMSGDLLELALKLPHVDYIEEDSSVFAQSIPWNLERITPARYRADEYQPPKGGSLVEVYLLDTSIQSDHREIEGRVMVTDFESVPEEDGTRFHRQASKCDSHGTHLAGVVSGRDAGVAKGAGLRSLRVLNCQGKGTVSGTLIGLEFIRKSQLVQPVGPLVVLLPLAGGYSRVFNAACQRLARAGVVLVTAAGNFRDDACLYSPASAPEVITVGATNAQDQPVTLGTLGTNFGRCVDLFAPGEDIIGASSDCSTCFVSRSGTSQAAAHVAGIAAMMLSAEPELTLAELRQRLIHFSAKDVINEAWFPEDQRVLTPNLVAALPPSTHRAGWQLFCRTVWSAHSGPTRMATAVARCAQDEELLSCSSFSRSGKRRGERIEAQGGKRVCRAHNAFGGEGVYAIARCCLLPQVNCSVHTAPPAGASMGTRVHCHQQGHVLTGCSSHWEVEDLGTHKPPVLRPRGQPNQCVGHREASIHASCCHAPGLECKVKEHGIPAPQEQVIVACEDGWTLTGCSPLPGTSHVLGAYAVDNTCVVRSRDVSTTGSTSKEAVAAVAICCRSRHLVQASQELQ
Put plainly: competition ELISA vs hLDLR-ecto, pH 7.2. (In general: ELISA stands for enzyme-linked immunosorbent assay.)
Protocol: (§1) Briefly, hLDLR-ecto, hLDLR EGF-A-hFc or hLDLR EGF-AB-hFc, each at 2 μg/ml, was coated on a 96-well plate in PBS buffer overnight at 4° C., and nonspecific binding sites blocked with BSA. […] The equilibrated sample solutions were transferred to receptor or receptor fragment coated plates.

Test [3] concerns the target T3, hPCSK9(D374Y)-mmh (human, UniProt Q8NBP7 31-692).
T3 construct: also called hPCSK(D374Y)-mmh
As to the kind of experiment: competition ELISA vs EGF-A-hFc, pH 7.2.
Protocol: as §1

For test [4], the target named is T2, tagged rhesus monkey (Macaca mulata) …. As to the kind of experiment: ELISA, mAb coated, 1.7 nM antigen.
The target in test [5] is T1, Human PCSK9-myc-myc-his. As to the kind of experiment: ELISA, mAb coated, 1.7 nM antigen.
The target in test [6] is T4, cynomolgus monkey (Macaca fascicularis) PCSK9, myc-myc-his tagged (cynomolgus monkey (Macaca fascicularis), UniProt A8T662 31-692 (Macaca nemestrina entry), limits assumed).
T4 construct: also called mfPCSK9-mmh; mfPCSK9
T4 sequence (A8T662 31-692 limits assumed): as the sequence (A8T666 31-692 limits assumed) above, with P607A, K639E counted along it
Put plainly: ELISA, mAb coated, 1.7 nM antigen.

The target in test [7] is Chimeric protein #2 (hPro-mCat-mC-term-mmh) (human; mouse, UniProt Q80W65 19-694). As to the kind of experiment: ELISA, mAb coated, 1.7 nM antigen.
Test [8] has as its target T5, mouse PCSK9, myc-myc-his tagged (mouse, UniProt Q80W65 35-694).
T5 construct: also called mPCSK9-mmh; mPCSK9
As to the kind of experiment: ELISA, mAb coated, 1.7 nM antigen.

In test [9] the target is T6, rat (Rattus norvegicus) PCSK9, myc-myc-his tagged (rat (Rattus norvegicus), UniProt P59996 31-691).
T6 construct: also called rPCSK9-mmh; rPCSK9
T6 sequence (P59996 31-691 limits assumed): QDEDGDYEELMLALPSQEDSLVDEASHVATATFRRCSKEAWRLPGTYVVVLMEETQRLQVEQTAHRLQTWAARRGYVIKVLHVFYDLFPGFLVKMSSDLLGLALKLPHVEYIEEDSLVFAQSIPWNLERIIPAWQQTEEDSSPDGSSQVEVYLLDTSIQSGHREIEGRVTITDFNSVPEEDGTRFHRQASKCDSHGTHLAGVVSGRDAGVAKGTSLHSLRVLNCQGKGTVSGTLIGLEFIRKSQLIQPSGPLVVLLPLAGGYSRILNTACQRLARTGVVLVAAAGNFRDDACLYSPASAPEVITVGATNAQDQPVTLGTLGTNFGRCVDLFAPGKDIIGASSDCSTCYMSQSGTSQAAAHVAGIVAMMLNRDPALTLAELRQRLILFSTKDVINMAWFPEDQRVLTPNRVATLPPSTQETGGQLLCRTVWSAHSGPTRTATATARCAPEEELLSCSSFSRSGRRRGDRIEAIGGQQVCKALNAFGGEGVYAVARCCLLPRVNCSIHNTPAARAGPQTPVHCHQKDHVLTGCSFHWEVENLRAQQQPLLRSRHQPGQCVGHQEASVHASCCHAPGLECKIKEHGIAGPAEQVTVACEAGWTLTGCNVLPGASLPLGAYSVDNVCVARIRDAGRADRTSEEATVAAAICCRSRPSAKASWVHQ
As to the kind of experiment: ELISA, mAb coated, 1.7 nM antigen.

Test [10] concerns the target T7, Chimeric protein #1 (mPro-hCat-mC-term-mmh) (mouse; human, UniProt Q80W65 35-694).
T7 chain: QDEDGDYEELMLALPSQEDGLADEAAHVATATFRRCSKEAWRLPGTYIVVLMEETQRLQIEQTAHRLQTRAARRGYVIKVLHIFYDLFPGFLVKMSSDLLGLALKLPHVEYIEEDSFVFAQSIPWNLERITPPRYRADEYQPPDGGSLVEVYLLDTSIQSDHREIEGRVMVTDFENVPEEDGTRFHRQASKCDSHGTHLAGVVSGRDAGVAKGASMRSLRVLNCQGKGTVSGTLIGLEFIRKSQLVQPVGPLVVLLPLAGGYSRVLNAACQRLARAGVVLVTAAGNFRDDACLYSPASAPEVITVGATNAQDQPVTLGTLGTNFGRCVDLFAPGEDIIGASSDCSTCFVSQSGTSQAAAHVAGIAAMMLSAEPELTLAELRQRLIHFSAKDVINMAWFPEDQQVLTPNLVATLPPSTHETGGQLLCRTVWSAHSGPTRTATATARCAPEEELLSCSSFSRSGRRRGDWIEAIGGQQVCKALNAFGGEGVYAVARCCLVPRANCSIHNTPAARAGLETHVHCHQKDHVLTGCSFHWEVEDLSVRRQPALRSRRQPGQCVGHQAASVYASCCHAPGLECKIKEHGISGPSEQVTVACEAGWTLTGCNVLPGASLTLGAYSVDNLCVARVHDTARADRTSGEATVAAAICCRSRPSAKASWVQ
Put plainly: ELISA, mAb coated, 1.7 nM antigen.

Test [11] has as its target T3, hPCSK9(D374Y)-mmh. Put plainly: ELISA, mAb coated, 1.7 nM antigen.
The target in test [12] is T1, Human PCSK9-myc-myc-his. Put plainly: competition ELISA vs hLDLR-ecto, pH 5.5.
Protocol: as §1
Test [13] concerns the target T2, tagged rhesus monkey (Macaca mulata) …. Put plainly: competition ELISA vs EGF-A, pH 5.5.
Protocol: as §1
The target of test [14] is T1, Human PCSK9-myc-myc-his. As to the kind of experiment: competition ELISA vs EGF-A, pH 5.5.
Protocol: as §1
Test [15] deals with T5, mouse PCSK9, myc-myc-his tagged. As to the kind of experiment: competition ELISA vs EGF-A, pH 5.5.
Protocol: as §1
Test [16] has as its target T8, his-tagged Syrian golden hamster (Mesocricetus auratus) PCSK9 (Syrian golden hamster (Mesocricetus …)).
T8 construct: also called maPCSK9-h; maPCSK9
T8 chain: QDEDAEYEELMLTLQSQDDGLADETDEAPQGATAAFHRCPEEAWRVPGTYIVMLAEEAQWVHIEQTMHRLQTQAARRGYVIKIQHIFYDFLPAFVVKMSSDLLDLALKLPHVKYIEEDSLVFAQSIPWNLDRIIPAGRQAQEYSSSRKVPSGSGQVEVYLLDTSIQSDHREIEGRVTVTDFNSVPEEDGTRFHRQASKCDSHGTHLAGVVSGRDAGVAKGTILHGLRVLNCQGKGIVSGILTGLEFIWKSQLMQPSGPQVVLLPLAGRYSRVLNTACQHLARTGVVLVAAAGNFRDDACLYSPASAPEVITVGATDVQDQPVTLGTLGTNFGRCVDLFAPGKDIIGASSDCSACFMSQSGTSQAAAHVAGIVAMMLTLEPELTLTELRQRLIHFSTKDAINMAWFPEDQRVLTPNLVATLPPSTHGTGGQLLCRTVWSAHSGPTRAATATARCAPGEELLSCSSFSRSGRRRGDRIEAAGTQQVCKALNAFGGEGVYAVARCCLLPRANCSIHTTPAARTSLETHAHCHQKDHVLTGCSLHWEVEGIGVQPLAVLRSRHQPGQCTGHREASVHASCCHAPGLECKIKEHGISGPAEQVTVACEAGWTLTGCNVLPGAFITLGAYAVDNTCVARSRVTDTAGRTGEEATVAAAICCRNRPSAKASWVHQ
Put plainly: competition ELISA vs EGF-A, pH 5.5.
Protocol: as §1

For test [17], the target named is T6, rat (Rattus norvegicus) PCSK9, …. As to the kind of experiment: competition ELISA vs EGF-A, pH 5.5.
Protocol: as §1

B1: H1H316P (antibody, V domains shown)
VH: EVQLVESGGGLVQPGGSLRLSCAASGFTFNNYAMNWVRQAPGKGLDWVSTISGSGGTTNYADSVKGRFIISRDSSKHTLYLQMNSLRAEDTAVYYCAKDSNWGNFDLWGRGTLVTVSS
VL: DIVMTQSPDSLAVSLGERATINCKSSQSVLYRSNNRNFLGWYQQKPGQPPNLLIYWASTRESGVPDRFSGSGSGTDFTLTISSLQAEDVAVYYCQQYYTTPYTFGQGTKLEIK
notes: Fully human mAb made in CHO cells; also called mAb316P
The Kd is a measure of binding affinity in units of concentration. As a reminder, the IC50 is the point on the concentration scale where inhibition reaches its midpoint. B1 yielded a Kd in the test with Human PCSK9-myc-myc-his [1] of 0.339 nM. In the test with Human PCSK9-myc-myc-his [1], this molecule had a T1/2 of 45 min. Also, the IC50 in test [2] is less than 0.25 nM; in the test with hPCSK9(D374Y)-mmh [3], 0.203 nM; with Human PCSK9-myc-myc-his [12], less than 0.125 nM; in [13], less than 0.25 nM; with Human PCSK9-myc-myc-his [14] it was less than 0.125 nM; in test [15] it was 0.991 nM. Also, the figures for the IC50 in test [16] and in [17] were 1.3 nM and 42.9 nM, respectively. Besides, the OD (in test [4]; with Human PCSK9-myc-myc-his [5]; in test [6]; in [7]; in test [8]; in test [9]) was greater than 1.5 od each time. Further, the OD (in test [10]; with hPCSK9(D374Y)-mmh [11]) was greater than 1.5 od in each case.

B2: H1M300N (antibody, V domains shown)
VH: EMQLVESGGGLVQPGGSLRLSCAASGFTFSSHWMKWVRQAPGKGLEWVANINQDGSEKYYVDSVKGRFTISRDNAKNSLFLQMNSLRAEDTAVYYCARDIVLMVYDMDYYYYGMDVWGQGTTVTVSS
VL: not shown
notes: Fully human version made in CHO cells
B2: in the test with Human PCSK9-myc-myc-his [1], binding was characterised by a dissociation constant (Kd) of 0.31 nM. Further, the T1/2 with Human PCSK9-myc-myc-his [1] was determined as 119 min. Further, the IC50 in test [2] was 0.255 nM; in the test with hPCSK9(D374Y)-mmh [3], 0.135 nM; with Human PCSK9-myc-myc-his [12], 1.49 nM; in test [13] it was 3.7 nM; in the test with Human PCSK9-myc-myc-his [14] it was 0.223 nM; in test [15], greater than 100 nM. The IC50 in test [16] and in [17] was greater than 100 nM throughout. Besides, the OD is greater than 1.5 od in [4]; greater than 1.5 od with Human PCSK9-myc-myc-his [5]; greater than 1.5 od in [6]; greater than 1.5 od in test [7]; less than 0.7 od in [8]; less than 0.7 od in test [9]. Also, the OD (in test [10]; in the test with hPCSK9(D374Y)-mmh [11]) was greater than 1.5 od throughout.
